For four molecules, Jurkat-Vy9Vo2 TCR MOP activation results are on record in US20260265379A1.

The assay addresses BTN3A expressed at the cell surface (human), O00481. The assay is described as follows: cell-based or functional assay.

Sequence of BTN3A expressed at the cell surface (human), O00481 (O00481 30-513): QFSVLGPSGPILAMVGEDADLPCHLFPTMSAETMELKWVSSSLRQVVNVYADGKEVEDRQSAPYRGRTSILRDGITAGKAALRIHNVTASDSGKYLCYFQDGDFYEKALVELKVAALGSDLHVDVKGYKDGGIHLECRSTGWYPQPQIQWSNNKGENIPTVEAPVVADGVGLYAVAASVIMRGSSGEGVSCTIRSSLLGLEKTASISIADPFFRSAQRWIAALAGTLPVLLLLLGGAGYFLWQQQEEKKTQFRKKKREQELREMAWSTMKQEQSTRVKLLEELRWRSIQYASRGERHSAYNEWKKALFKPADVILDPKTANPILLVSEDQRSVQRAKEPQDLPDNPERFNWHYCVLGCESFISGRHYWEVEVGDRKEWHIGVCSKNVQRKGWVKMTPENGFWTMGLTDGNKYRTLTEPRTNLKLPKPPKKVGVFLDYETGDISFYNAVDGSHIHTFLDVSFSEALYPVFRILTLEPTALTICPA

B1: bsAb009 (bispecific antibody)
heavy: QVQLVQSGVEVKKPGASVKVSCKASGYTFTNYYMYWVRQAPGQGLEWMGGINPSNGGTNFNEKFKNRVTLTTDSSTTTAYMELKSLQFDDTAVYYCARRDYRFDMGFDYWGQGTTVTVSSASTKGPSVFPLAPSSKSTSGGTAALGCLVKDYFPEPVTVSWNSGALTSGVHTFPAVLQSSGLYSLSSVVTVPSSSLGTQTYICNVNHKPSNTKVDKRVEPKSCDKTHTCPPCPAPEFEGGPSVFLFPPKPKDTLMISRTPEVTCVVVDVSHEDPEVKFNWYVDGVEVHNAKTKPREEQYNSTYRVVSVLTVLHQDWLNGKEYKCKVSNKALPASIEKTISKAKGQPREPQVYTLPPSREEMTKNQVSLTCLVKGFYPSDIAVEWESNGQPENNYKTTPPVLDSDGSFFLYSKLTVDKSRWQQGNVFSCSVMHEALHNHYTQKSLSLSPG
light: EIVLTQSPATLSLSPGERATLSCRASKGVSTSGYSYLHWYQQKPGQAPRLLIYLASYLESGVPARFSGSGSGTDFTLTISSLEPEDFAVYYCQHSRDLPLTFGGGTKVEIKRTVAAPSVFIFPPSDEQLKSGTASVVCLLNNFYPREAKVQWKVDNALQSGNSQESVTEQDSKDSTYSLSSTLTLSKADYEKHKVYACEVTHQGLSSPVTKSFNRGECGGGGSGGGGSGGGGSGGGGSQVQLVQSGAEVKKPGASVKLSCKASGYIFTRYYMYWVKQRPGQGLEWIGEINPNNGGTKFNEKFKNRATLTVDKSISTAYMELSRLRSDDTAVYYCSREDDYDGTPFAMDYWGQGTLVTVSSGGGGSGGGGSGGGGSGGGGSDIQMTQSPSSLSASVGDRVTITCHASQNINVWLSWYQQKPGKAPKLLIYKASNLHTGVPSRFTGSGSGTDFTFTISSLQPEDIATYYCQQGQTYPYTFGQGTKLEIK
As for B1, the Jurkat-Vy9Vo2 TCR MOP activation at 0.5 nM (fold-change to medium) worked out at 1 and the Jurkat-Vy9Vo2 TCR MOP activation at 5 nM (fold-change to medium) amounted to 0.8.

B2: bsAb037 (bispecific antibody, not shown: small tags and cut ends; a dimerising Fc or GST)
heavy 1: QVQLVQSGVEVKKPGASVKVSCKASGYTFTNYYMYWVRQAPGQGLEWMGGINPSNGGTNFNEKFKNRVTLTTDSSTTTAYMELKSLQFDDTAVYYCARRDYRFDMGFDYWGQGTTVTVSS
heavy 2: DIQMTQSPSSLSASVGDRVTITCHASQNINVWLSWYQQKPGKAPKLLIYKASNLHTGVPSRFTGSGSGTDFTFTISSLQPEDIATYYCQQGQTYPYTFGQGTKLEIKGGGGSGGGGSGGGGSGGGGSQVQLVQSGAEVKKPGASVKLSCKASGYIFTRYYMYWVKQRPGQGLEWIGEINPNNGGTKFNEKFKNRATLTVDKSISTAYMELSRLRSDDTAVYYCSREDDYDGTPFAMDYWGQGTLVTVSSGGGGSGGGGSGGGGSGGGGS
light: EIVLTQSPATLSLSPGERATLSCRASKGVSTSGYSYLHWYQQKPGQAPRLLIYLASYLESGVPARFSGSGSGTDFTLTISSLEPEDFAVYYCQHSRDLPLTFGGGTKVEIKRTVAAPSVFIFPPSDEQLKSGTASVVCLLNNFYPREAKVQWKVDNALQSGNSQESVTEQDSKDSTYSLSSTLTLSKADYEKHKVYACEVTHQGLSSPVTKSFNRGECGGGGSGGGGSGGGGSGGGGSQVQLVQSGAEVKKPGASVKLSCKASGYIFTRYYMYWVKQRPGQGLEWIGEINPNNGGTKFNEKFKNRATLTVDKSISTAYMELSRLRSDDTAVYYCSREDDYDGTPFAMDYWGQGTLVTVSSGGGGSGGGGSGGGGSGGGGSDIQMTQSPSSLSASVGDRVTITCHASQNINVWLSWYQQKPGKAPKLLIYKASNLHTGVPSRFTGSGSGTDFTFTISSLQPEDIATYYCQQGQTYPYTFGQGTKLEIK
In the case of B2, the Jurkat-Vy9Vo2 TCR MOP activation at 0.5 nM (fold-change to medium) was found to be 1.2 and the Jurkat-Vy9Vo2 TCR MOP activation at 5 nM (fold-change to medium) stood at 1.7.

B3: bsAb021 (bispecific antibody)
heavy: QVQLVQSGAEVKKPGASVKLSCKASGYIFTRYYMYWVKQRPGQGLEWIGEINPNNGGTKFNEKFKNRATLTVDKSISTAYMELSRLRSDDTAVYYCSREDDYDGTPFAMDYWGQGTLVTVSSGGGGSGGGGSGGGGSGGGGSDIQMTQSPSSLSASVGDRVTITCHASQNINVWLSWYQQKPGKAPKLLIYKASNLHTGVPSRFTGSGSGTDFTFTISSLQPEDIATYYCQQGQTYPYTFGQGTKLEIKGGGGSGGGGSGGGGSGGGGSQVQLVQSGVEVKKPGASVKVSCKASGYTFTNYYMYWVRQAPGQGLEWMGGINPSNGGTNFNEKFKNRVTLTTDSSTTTAYMELKSLQFDDTAVYYCARRDYRFDMGFDYWGQGTTVTVSSASTKGPSVFPLAPSSKSTSGGTAALGCLVKDYFPEPVTVSWNSGALTSGVHTFPAVLQSSGLYSLSSVVTVPSSSLGTQTYICNVNHKPSNTKVDKRVEPKSCDKTHTCPPCPAPEFEGGPSVFLFPPKPKDTLMISRTPEVTCVVVDVSHEDPEVKFNWYVDGVEVHNAKTKPREEQYNSTYRVVSVLTVLHQDWLNGKEYKCKVSNKALPASIEKTISKAKGQPREPQVYTLPPSREEMTKNQVSLTCLVKGFYPSDIAVEWESNGQPENNYKTTPPVLDSDGSFFLYSKLTVDKSRWQQGNVFSCSVMHEALHNHYTQKSLSLSPG
light: EIVLTQSPATLSLSPGERATLSCRASKGVSTSGYSYLHWYQQKPGQAPRLLIYLASYLESGVPARFSGSGSGTDFTLTISSLEPEDFAVYYCQHSRDLPLTFGGGTKVEIKRTVAAPSVFIFPPSDEQLKSGTASVVCLLNNFYPREAKVQWKVDNALQSGNSQESVTEQDSKDSTYSLSSTLTLSKADYEKHKVYACEVTHQGLSSPVTKSFNRGEC
B3: the Jurkat-Vy9Vo2 TCR MOP activation at 0.5 nM (fold-change to medium) amounted to 1.6 and the Jurkat-Vy9Vo2 TCR MOP activation at 5 nM (fold-change to medium) worked out at 1.5.

B4: bsAb034 (bispecific antibody, not shown: small tags and cut ends; a dimerising Fc or GST)
heavy (part 1 of 2): QVQLVQSGVEVKKPGASVKVSCKASGYTFTNYYMYWVRQAPGQGLEWMGGINPSNGGTNFNEKFKNRVTLTTDSSTTTAYMELKSLQFDDTAVYYCARRDYRFDMGFDYWGQGTTVTVSS
heavy (part 2 of 2): GGGGSGGGGSGGGGSGGGGSQVQLVQSGAEVKKPGASVKLSCKASGYIFTRYYMYWVKQRPGQGLEWIGEINPNNGGTKFNEKFKNRATLTVDKSISTAYMELSRLRSDDTAVYYCSREDDYDGTPFAMDYWGQGTLVTVSSGGGGSGGGGSGGGGSGGGGSDIQMTQSPSSLSASVGDRVTITCHASQNINVWLSWYQQKPGKAPKLLIYKASNLHTGVPSRFTGSGSGTDFTFTISSLQPEDIATYYCQQGQTYPYTFGQGTKLEIK
heavy: GGGGSGGGGSGGGGSGGGGSQVQLVQSGAEVKKPGASVKLSCKASGYIFTRYYMYWVKQRPGQGLEWIGEINPNNGGTKFNEKFKNRATLTVDKSISTAYMELSRLRSDDTAVYYCSREDDYDGTPFAMDYWGQGTLVTVSSGGGGSGGGGSGGGGSGGGGSDIQMTQSPSSLSASVGDRVTITCHASQNINVWLSWYQQKPGKAPKLLIYKASNLHTGVPSRFTGSGSGTDFTFTISSLQPEDIATYYCQQGQTYPYTFGQGTKLEIK
light: EIVLTQSPATLSLSPGERATLSCRASKGVSTSGYSYLHWYQQKPGQAPRLLIYLASYLESGVPARFSGSGSGTDFTLTISSLEPEDFAVYYCQHSRDLPLTFGGGTKVEIKRTVAAPSVFIFPPSDEQLKSGTASVVCLLNNFYPREAKVQWKVDNALQSGNSQESVTEQDSKDSTYSLSSTLTLSKADYEKHKVYACEVTHQGLSSPVTKSFNRGEC
Take B4: the Jurkat-Vy9Vo2 TCR MOP activation at 0.5 nM (fold-change to medium) amounted to 0.9 and the Jurkat-Vy9Vo2 TCR MOP activation at 5 nM (fold-change to medium) was determined as 1.1.
